doi:10.1101/2023.05.02.539095 (bioRxiv, 2023)

Key:
[1] = biological target: 0317ΔCD (MSMEG_0317 lacking the C-terminal cytoplasmic domain) (M. smegmatis); assay: SEC-MALS
[2] = biological target: 0317ΔNH (MSMEG_0317 lacking the N-terminal TM helix) (M. smegmatis); assay: SEC-MALS

Row | Substance | stoichiometry N [1] | stoichiometry N [2]
1 | 0317ΔCD (MSMEG_0317 lacking the C-terminal cytoplasmic domain) (domain or fragment) | 2 | –
2 | 0317ΔNH (MSMEG_0317 lacking the N-terminal TM helix) (domain or fragment) | – | 2
